Test results from patent US20140120109A1 (Regeneron, published 2014).
Substitutions are numbered along the chain they refer to. Names may count otherwise.

T1: human TL1A, soluble, CHO-expressed, residues 72-251 of SEQ ID NO:244 with N-terminal His6-tag (human, UniProt O95150 72-251)
T1 construct: also called hTL1A; hTL1A (CHO)
T1 sequence: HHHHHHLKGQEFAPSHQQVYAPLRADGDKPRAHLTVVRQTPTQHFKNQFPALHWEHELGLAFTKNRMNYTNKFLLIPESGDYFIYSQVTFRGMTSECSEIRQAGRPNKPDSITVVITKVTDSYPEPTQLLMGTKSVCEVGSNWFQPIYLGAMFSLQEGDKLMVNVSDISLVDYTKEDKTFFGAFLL

T2: cynomolgus monkey TL1A, soluble, CHO-expressed, residues 72-251 of SEQ ID NO:248 with N-terminal His6-tag (cynomolgus monkey (Macaca fascicularis), UniProt O95150 72-251 (human entry))
T2 construct: also called MfTL1A; MfTL1A (CHO)
T2 chain: T1 sequence with F45L, I84V

T3: rat TL1A, soluble, CHO-expressed, residues 76-252 of SEQ ID NO:258 with N-terminal His6-tag (rat, UniProt Q8K3Y7 76-252)
T3 construct: also called rTL1A; rTL1A (CHO)
T3 sequence: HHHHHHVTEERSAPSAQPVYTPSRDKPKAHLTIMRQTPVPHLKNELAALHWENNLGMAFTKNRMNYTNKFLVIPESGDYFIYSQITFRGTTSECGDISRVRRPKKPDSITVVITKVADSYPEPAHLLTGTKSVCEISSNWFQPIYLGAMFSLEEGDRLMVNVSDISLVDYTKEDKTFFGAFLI

T4: full length human TL1A expressed on HEK293 cells (human, UniProt O95150 1-251)
T4 sequence: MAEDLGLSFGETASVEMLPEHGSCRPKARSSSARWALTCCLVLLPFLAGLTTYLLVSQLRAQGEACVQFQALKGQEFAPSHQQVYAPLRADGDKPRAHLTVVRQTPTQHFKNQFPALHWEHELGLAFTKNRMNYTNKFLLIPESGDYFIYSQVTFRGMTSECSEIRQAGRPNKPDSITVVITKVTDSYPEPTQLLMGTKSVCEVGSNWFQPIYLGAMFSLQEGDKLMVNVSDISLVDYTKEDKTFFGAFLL

T5: full-length Fhm, human TL1A(Q167R), expressed on HEK293 cells (human, UniProt O95150 1-251)
T5 sequence: T4 sequence with Q167R

B1: H4H1804N (antibody, human IgG4 S228P, V domains shown)
VH: QVQLHQWGAGLLKPSETLSLTCAVSGVSFSDYHWAWIRQSPGKGLEWIGDINHRGRTNYNPSLKSRVTISLDTSGNPFSLKLTSVTAADTAVYYCARDFPNWVFDSWGQGILVTVSS
VL: EIVLSQSPGTLSLSPGERATLSCRASQSVSSSFLAWYQQYPGQAPRLLIYGASRRATGIPDRFRGSGSGTDFTLTISRLEPEDFAVYYCQQYGSSPLTFGGGTKVENK
notes: human IgG4(S108P) form of H2M1804N
B2: H4H1805N (antibody, human IgG4 S228P, V domains shown)
VH: QVQLQQWGAGLLKPSETLSLTCAVYGGSFTGFYWSWIRQPPGKGLEWIGEINHRGNTNYNPSLKSRVTMSVDTSKNQFSLNMISVTAADTAMYFCASPFYDFWSGSDYWGQGTLVTVSS
VL: DIMLTQTPLTSPVTLGQPASISCKSSQSLVHSDGNTYLSWLQQRPGQPPRLLFYKISNRFSGVPDRFSGSGAGTDFTLKISRVEAEDVGVYYCMQATQFPLTFGGGTKVEIK
notes: human IgG4(S108P) form of H2M1805N
B3: H4H1817N (antibody, human IgG4 S228P, V domains shown)
VH: QVQLQQWGAGLLKPSETLSLTCAVSGGSFSDYFWTWIRQPPGKGLEWIGEISHSGRTNYNPSLKSRVTISVDTSMSQFSLKMTSVTAADSAVYYCARDYPNWVFDYWGQGTLVTVSS
VL: EIELTQSPGTLSLSPGEGATLSCRASQSVFNSYLAWYQQKPGQAPRLLIYGASRRATGIPDRFSGSGSGTDFTLTISRLEPGDFAVYFCQQYGNSPLTFGGGTKVEIK
notes: human IgG4(S108P) form of H2M1817N
B4: H4H1818N (antibody, human IgG4 S228P, V domains shown)
VH: RLQLVESGGGLVKPGGSLKLSCAASGFTISDYYMSWIRQAPGKGLEWVSYIGGSGSTIYYADSVKGRFTISRDNAKNSLYLQMNSLRAEDTAVYYCAREDADSYYYYGMDVWGQGTTVTVSS
VL: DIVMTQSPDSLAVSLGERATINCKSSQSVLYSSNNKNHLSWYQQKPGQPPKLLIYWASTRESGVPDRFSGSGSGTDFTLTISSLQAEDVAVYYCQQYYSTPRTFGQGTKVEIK
notes: human IgG4(S108P) form of H2M1818N
B5: H4H1681N (antibody, human IgG4 S228P, V domains shown)
VH: EVQLLESGGGLVQPGKSLRLSCAVSGFTFSTYGMNWVRQAPGKGLEWVSSISGTGRTTYHADSVQGRFTVSRDNSKNILYLQMNSLRADDTAVYFCTKERGDYYYGVFDYWGQGTLVTVSS
VL: DIQMTQSPSTLSASVGDRVTITCRASQTISSWLAWYQQTPEKAPKLLIYAASNLQSGVPSRFSGSGSGTEFTLTISSLQPDDFATYYCQQYHRSWTFGQGTKVEIT
B6: H4H1719P (antibody, human IgG4 S228P, V domains shown)
VH: EVQLVESGGGLVQPGRSLRLSCVASGFTFQDYAMHWVRQAPGKGLEWVSGINWISDDMGYADSVMGRFTISRDNAKNSLYLQMDSLRAEDTALYYCAKDKGLRFLDYVMDVWGQGTTVTVSA
VL: DIVMTQSPLSLPVTPGEPASISCRSTQSLLHRNGHNYLHWYLHKPGQSPQLLIHLGSNRASGVPDRFSGSGSGTDFTLKISRVEAEDVGVYYCMQALQTPYTFGQGTKLEIK
B7: H4H1704N (antibody, human IgG4 S228P, V domains shown)
VH: EVQLVESGGGLVQPGGSLRLSCAVSGFTFSSYWMSWVRQAPGKGLEWVANIKEDGSEKNYVDSVKGRFTLSSDNAKNSLYLQMNSLRAEDTAVYYCAREDYDSYYKYGMDVWGQGTAVIVSS
VL: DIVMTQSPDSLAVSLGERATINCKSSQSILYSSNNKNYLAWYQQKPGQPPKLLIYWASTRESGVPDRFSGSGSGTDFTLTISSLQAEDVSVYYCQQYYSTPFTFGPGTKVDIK
notes: human IgG4(S108P) form of H2M1704N
B8: H4H1752P (antibody, human IgG4 S228P, V domains shown)
VH: EVQLVESGGGLVQPGGSLRLSCSASGFTFSKYVMTWVRQAPGKGLEWVSAIGPTGRTTEYADSVQGRFTISRDNSMNTVFLHLNSLTAEDTAEYYCAKMFDWNYDVYFDSWGQGTLVTVSS
VL: DIQMTQSPSILSASVGDRVTITCRTSQSISNWLAWYQQKPGKAPNLLIYKASSLESGVPSRFSGSGSGTEFTLTISSLQPDDFATYYCQQYYRYWTFGQGTKVEIK
B9: H4H1750P (antibody, human IgG4 S228P, V domains shown)
VH: QVQLVESGGGVVQPGRSLRLSCVASGFTFSNYGMHWVRQAPGKGLEWVAVISYDGNNDLYSDSVKGRFTISRDNAKNALSLQMTSLRAEDTAVYYCARDSTMTPYYYHGIDVWGQGTTVTVSA
VL: DIQMTQSPSSLSASVGDRVTITCRASQDIRNDLGWYQQKPGKAPKRLIYAASSLQSGVPSRFSGSGSGTDFTLTISSLQPEDFATYYCLQHNSYPPTFGQGTKVEIK

The binders below were run against T1, human TL1A, soluble, CHO-expressed, … (assay: SPR 25C, mAb captured).
Method in brief: (§1)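 Biacore T100 SPR with captured mAb and soluble TL1A/Fhm analyte; ka and kd fitted to a 1:1 model assuming monomeric TL1A. KD = kd/ka; t1/2 (min) = ln2/(60·kd).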

Kd | t1/2 | Binder
0.291 nM | 0.85 h | B1
0.365 nM | 1.22 h | B2
0.321 nM | 1.72 h | B3
0.124 nM | 2 h | B4
0.263 nM | 0.6 h | B5
0.481 nM | 0.733 h | B6
0.0392 nM | 7.55 h | B7
0.156 nM | 3.28 h | B8

Target: T2, cynomolgus monkey TL1A, soluble, …
Experiment: SPR 25C, mAb captured
Method in brief: as §1

Kd | t1/2 | Binder
0.264 nM | 0.817 h | B1
0.342 nM | 1.23 h | B2
0.356 nM | 1.53 h | B3
0.119 nM | 2.03 h | B4
0.404 nM | 0.417 h | B5
0.417 nM | 0.75 h | B6
0.0599 nM | 4.6 h | B7
0.213 nM | 2.32 h | B8

These binders were tested against T3, rat TL1A, soluble, CHO-expressed, … (assay: SPR 25C, mAb captured).
Method in brief: as §1

binding result | Kd | t1/2 | Binder
no binding (tested: up to 100 nM) |  |  | B9
 | 0.321 nM | 0.717 h | B1
no binding (tested: up to 100 nM) |  |  | B2
 | 2.5 nM | 0.417 h | B3
 | 0.088 nM | 1.53 h | B4
no binding (tested: up to 100 nM) |  |  | B5
 | 0.364 nM | 0.633 h | B6
 | 0.404 nM | 0.417 h | B7
no binding (tested: up to 100 nM) |  |  | B8

These binders were tested against T4, full length human TL1A expressed on … (assay: cell-based or functional assay).

IC50, reporter + 10,000 TL1A cells | Binder
12.8 nM | B9
0.56 nM | B1
0.82 nM | B2
1.11 nM | B3
1.54 nM | B4
0.66 nM | B5
0.82 nM | B6
1.11 nM | B7
1.99 nM | B8

The binders below were run against T5, full-length Fhm, human TL1A(Q167R), … (assay: cell-based or functional assay).

IC50, reporter + 10,000 TL1A cells | Binder
29.5 nM | B9
1.23 nM | B1
54.1 nM | B2
0.62 nM | B3
1.42 nM | B4
0.84 nM | B6
1.58 nM | B7
138 nM | B8

These binders were tested against T1, human TL1A, soluble, CHO-expressed, … (assay: ELISA, blocks hTL1A (10 pM) binding hDcR3-Fc).
Experimental: (§2) The ability of antibodies to block human TL1A binding to its cognate receptors, the DR3 and DcR3 receptors, was measured using a competition sandwich ELISA. In addition, blocking of a human TL1A variant FHM (human TL1A Q167R) and the cynomolgus monkey (Macaca fascicularis) TL1A (MfTL1A) protein binding to the human DR3 or DcR3 receptors was measured in the same manner. Constant amounts of biotinylated human TL1A or FHM (both expressed with a 6-His tag in CHO cells) or biotinylated MfTL1A (expressed in CHO cells) were separately titrated with varying amounts of antibodies. The antibody-protein complexes were incubated in solution (1 hr, 25° C.) and then transferred to microtiter plates coated with human DR3 (hDR3) or human DcR3 (hDcR3) expressed as human IgG1 Fc fusion proteins. After one hour at 25° C. the wells were washed, and bound human or monkey TL1A was detected with streptavidin conjugated with horseradish peroxidase (HRP). Wells were developed with a TMB solution to produce a colorimetric reaction and quenched with aqueous sulfuric acid before reading absorbance at 450 nm on a Perkin-Elmer Victor X5 plate reader. A sigmoidal dose-response curve was fit to the data using the Prism™ data analysis package. […] Both fully human anti-hTL1A mAbs and comparator antibodies, i.e., control mAb1 (an anti-hTL1A antibody with heavy and light chain variable domains having the amino acid sequences corresponding to SEQ ID NOS:21 and 27, respectively, of US 2009/0280116) and control mAb3 (an anti-hTL1A antibody with heavy and light chain variable domains having the amino acid sequences corresponding to SEQ ID NOS:57 and 48, respectively, of US 2009/0280116), were included in the study. NB: No binding under the conditions tested; NT: Not tested. Concentrations of biotinylated soluble ligands: (1) 150 pM; (2) 500 pM; (3) 10 pM; and (4) 50 pM.

IC50 | Binder
0.656 nM | B9
0.175 nM | B1
0.033 nM | B2
0.27 nM | B3
0.232 nM | B4
0.017 nM | B5
0.044 nM | B6
0.077 nM | B7
0.031 nM | B8

Target: T2, cynomolgus monkey TL1A, soluble, …
Experiment: ELISA, blocks MfTL1A (500 pM) binding hDR3-Fc
Experimental: as §2

IC50 | Binder
0.071 nM | B1
0.026 nM | B2
0.101 nM | B3
0.123 nM | B4
0.141 nM | B5
0.046 nM | B6
0.042 nM | B7
0.11 nM | B8
